From CN112538115A (BIOSION BIO TECH NANJING CO LTD, dated 2021) come the findings set out here.

The target in the assay is T1, 人BCMA-His抗原 (ACRO, Cat#BCA-H522y) (human, UniProt Q02223 1-54).
T1 construct: Bought reagent; Coated on the ELISA plate at 2 ug/ml; also called 人BCMA蛋白; 人BCMA抗原; not shown: His tag
T1 sequence (looked up): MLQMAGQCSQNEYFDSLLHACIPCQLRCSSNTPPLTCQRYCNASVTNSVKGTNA
In words: indirect ELISA, human BCMA-His coated at 2 ug/ml, detection with HRP goat anti-human Fc gamma. In general terms: ELISA stands for enzyme-linked immunosorbent assay.

B1: BCMA-VHH-1F7纳米抗体 (抗人BCMA纳米抗体, 含有Fc tag) (Fc fusion)
chain: EVQLVESGGGLVQAGGSLRLSCAASGGTFNNDNVGWFRQAPGKEREFVAVISWRGDGTDYADSVKGRFTISRDYAKKMVYLQMNSLQPKDTAVYYCAVGDGSRWHGAYAYWGQGTRVTVSS
notes: Expressed in Expi293F cells with an Fc tag and purified on Protein A or G; detected with anti-human Fc gamma, about 35 kDa on SDS-PAGE; also called 抗BCMA纳米抗体; not shown: Fc tag
With B1, the binding result is on record as “binds”.
